Here are results for one molecule from US20160215055A1 (PROMIS NEUROSCIENCES, published 2016).

For this assay, the target named is T1, FasR epitope peptide LHHDGQFCH (human FasR residues 52-60) (human, also: coupled to BSA, linkage not given here).
T1 construct: Coated as BSA-peptide at 100 ng/well; The immunogens were KLH-Cys-X and OVA-Cys-X; also called BSA-specific peptide
T1 peptide: LHHDGQFCH
Briefly: ELISA, BSA-peptide coated on plates. In general terms: An ELISA detects its analyte on a solid surface through an enzyme-linked reagent.

Ends that are not written are not given here.

B1: AMF-3a-118 (antibody, V domains shown)
VH: QSVEESGGRLVTPGTPLTLTCKASGFSLSDSRVSWVRQAPGKGLEWIGIVGIGWNIYHANWAKGRFTISKTSSTTVDLKITSPTVEDTATYFCARGLGGGTVIWGPGTLVTVSL
VL: AQVLTQTPASVSAAVGGTVTISCQSSESVYKNNYLSWFQQKPGQPPKLLIYEASKLASGVSTRFKGSGSGTQFTLTISGVQCDDAATYYCLGEFSCYSGDCGTFGGGTAVVVKG
notes: Recombinant rabbit monoclonal IgG (RabMAb) expressed in HEK-293-6E cells
With B1, the binding result was “binds”.
